Patent publication US20240025977A1 (UNIVERSITY HEALTH NETWORK, published 2024)

What was measured:
[1] = biological target: ATTR amyloid in human cardiac tissue (human, UniProt P02766 21-147); assay: immunohistochemistry, ATTR cardiac tissue
[2] = biological target: T1, misfolded/unfolded AL12 kappa light chain; assay: BLI (Octet), LX-96 on Anti-Mouse IgG Fc Capture biosensors, misfolded AL12 in solution
T1 construct: also called misfolded AL12
Description: (§1) FIGS. 13A-13D are bio-layer interferometry sensorgrams of binding interactions between LX-96 and misfolded (FIG. 13A, 13C) or native kappa light chain variants (FIG. 13B, 13D). Binding of LX-96 with its targets at a range of target concentrations was measured by changes in wavelength (nm) over 2000 seconds (300s association, 1700s dissociation). Association and dissociation curves were fit using Octet Systems Software to determine KD, KD Error, X2 and R2 values (table insets; FIGS. 13A-13D).
(§2) We quantified the monovalent binding affinity of LX-96 using bio-layer interferometry (BLI). LX-96 was loaded onto Anti-Mouse IgG Fc Capture (AMC) biosensors and dipped into a solution of varying concentrations of misfolded AL09 (0-200 nM) or native AL09 (0-3000 nM). From the sensorgram, we observed rapid association of misfolded AL09 with LX-96, followed by a slow dissociation step (FIG. 13A). […] This confirms that LX-96 is capable of binding specifically to the misfolded form of different kappa light chain variants at similar, single-digit nanomolar affinities.

[3] = biological target: T2, IAPP (islet amyloid polypeptide) amyloid in pancreatic tissue (human, UniProt P10997 34-70); assay: immunohistochemistry, pancreatic tissue
T2 construct: Tissue section; also called IAPP pancreatic tissue
T2 chain (looked up): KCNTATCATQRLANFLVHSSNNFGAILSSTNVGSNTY

[4] = biological target: T1, misfolded/unfolded AL12 kappa light …; assay: bio-layer interferometry, Octet fit, table inset
Description: as §1, §2

[5] = biological target: FITC-labeled AL09 under amyloid-forming conditions; assay: cell-based or functional assay
[6] = biological target: T3, misfolded/unfolded AL09 kappa light chain; assay: BLI (Octet), LX-96 on Anti-Mouse IgG Fc Capture biosensors, misfolded AL09 0-200 nM in solution
T3 construct: Same polypeptide as native AL09, in a chemically unfolded, reduced and alkylated state; also called misfolded AL09; mis/unfolded AL09
Description: as §1, §2

B1: LX-96 anti-kappa monoclonal antibody (antibody, V domains shown)
VH: QVQLQQPGAELARPGASVKLSCKASGYTFTSFWIQWIKQRPGQGLEWIGSIYPGDGDTRYIQKFRGKATLTADESSSTAYMQLSSLASEDSAIYYCAIVTTAPDYWGQGTTLTVSS
VL: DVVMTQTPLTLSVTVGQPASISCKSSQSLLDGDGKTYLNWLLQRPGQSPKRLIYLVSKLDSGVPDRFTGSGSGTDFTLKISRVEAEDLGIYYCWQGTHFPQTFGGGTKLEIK
notes: Fluorescently labeled in the in vivo localisation assay; also called anti-κ monoclonal antibody
[1]
  binding result: no binding
[2]
  Kd: 7.5 nM
[3]
  binding result: no binding
[4]
  Kd: 7.47 nM
[5]
  inhibition of AL09 aggregation (FITC fluorescence of the soluble fraction at endpoint), IC50: < 1000 nM
[6]
  Kd: 1.12 nM
